Test results published in PMC3430514.
Read-outs that look alike come from different tables or passages of the source.

Columns and labels:
RIG-I full-length = target: T1, RIG-I full-length (human, UniProt O95786 1-925); assay: fluorescence anisotropy
T1 sequence: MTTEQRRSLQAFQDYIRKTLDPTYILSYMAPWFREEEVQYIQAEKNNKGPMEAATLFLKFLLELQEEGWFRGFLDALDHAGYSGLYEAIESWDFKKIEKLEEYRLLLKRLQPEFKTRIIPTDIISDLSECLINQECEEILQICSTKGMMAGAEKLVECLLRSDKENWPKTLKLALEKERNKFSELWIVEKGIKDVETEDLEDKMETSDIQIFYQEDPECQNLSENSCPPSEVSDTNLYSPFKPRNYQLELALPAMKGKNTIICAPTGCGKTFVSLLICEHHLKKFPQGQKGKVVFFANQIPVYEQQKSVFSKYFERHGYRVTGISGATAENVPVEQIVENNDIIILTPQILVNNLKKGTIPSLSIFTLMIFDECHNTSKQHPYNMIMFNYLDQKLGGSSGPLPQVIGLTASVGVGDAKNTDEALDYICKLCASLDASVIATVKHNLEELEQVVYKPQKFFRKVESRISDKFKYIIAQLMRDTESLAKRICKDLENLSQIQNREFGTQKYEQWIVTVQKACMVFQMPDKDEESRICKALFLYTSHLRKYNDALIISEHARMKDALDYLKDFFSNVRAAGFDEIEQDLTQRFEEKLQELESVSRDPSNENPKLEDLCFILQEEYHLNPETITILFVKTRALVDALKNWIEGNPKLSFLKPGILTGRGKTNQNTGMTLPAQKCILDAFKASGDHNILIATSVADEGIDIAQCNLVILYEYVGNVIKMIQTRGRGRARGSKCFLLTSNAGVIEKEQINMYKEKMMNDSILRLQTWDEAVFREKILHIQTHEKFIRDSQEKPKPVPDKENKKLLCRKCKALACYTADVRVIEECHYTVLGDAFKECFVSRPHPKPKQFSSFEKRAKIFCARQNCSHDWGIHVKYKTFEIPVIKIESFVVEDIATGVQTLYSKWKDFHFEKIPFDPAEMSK

[1] = target: T2, RIG-I RD (repressor domain) (human, UniProt O95786 795-925); assay: fluorescence anisotropy
T2 sequence: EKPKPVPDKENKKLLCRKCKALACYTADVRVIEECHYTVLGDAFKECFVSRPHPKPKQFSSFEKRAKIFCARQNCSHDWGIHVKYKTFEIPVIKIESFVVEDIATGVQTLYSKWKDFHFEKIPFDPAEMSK

RIG-I helicase domain [2] = target: T3, RIG-I helicase domain (human, UniProt O95786 232-794); assay: fluorescence anisotropy
T3 sequence: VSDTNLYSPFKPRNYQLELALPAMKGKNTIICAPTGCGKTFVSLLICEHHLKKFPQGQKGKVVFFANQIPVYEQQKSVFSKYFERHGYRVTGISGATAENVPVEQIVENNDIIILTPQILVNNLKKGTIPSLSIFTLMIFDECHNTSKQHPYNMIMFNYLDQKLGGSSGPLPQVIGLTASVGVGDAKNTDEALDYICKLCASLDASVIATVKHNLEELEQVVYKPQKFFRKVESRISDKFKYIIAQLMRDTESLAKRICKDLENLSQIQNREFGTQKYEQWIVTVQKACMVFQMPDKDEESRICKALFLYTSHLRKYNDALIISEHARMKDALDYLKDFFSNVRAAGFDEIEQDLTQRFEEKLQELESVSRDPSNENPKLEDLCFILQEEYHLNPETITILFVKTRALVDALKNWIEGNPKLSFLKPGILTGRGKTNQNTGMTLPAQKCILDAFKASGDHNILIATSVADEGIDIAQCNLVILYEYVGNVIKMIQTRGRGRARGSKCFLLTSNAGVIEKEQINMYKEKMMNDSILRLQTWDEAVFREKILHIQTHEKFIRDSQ

RIG-I helicase domain [3] = target: T3, RIG-I helicase domain; assay: fluorescence anisotropy; remark: listed apart in the source
RIG-I helicase-RD = target: T4, RIG-I helicase-RD (human, UniProt O95786 232-925); assay: X-ray crystallography
T4 sequence: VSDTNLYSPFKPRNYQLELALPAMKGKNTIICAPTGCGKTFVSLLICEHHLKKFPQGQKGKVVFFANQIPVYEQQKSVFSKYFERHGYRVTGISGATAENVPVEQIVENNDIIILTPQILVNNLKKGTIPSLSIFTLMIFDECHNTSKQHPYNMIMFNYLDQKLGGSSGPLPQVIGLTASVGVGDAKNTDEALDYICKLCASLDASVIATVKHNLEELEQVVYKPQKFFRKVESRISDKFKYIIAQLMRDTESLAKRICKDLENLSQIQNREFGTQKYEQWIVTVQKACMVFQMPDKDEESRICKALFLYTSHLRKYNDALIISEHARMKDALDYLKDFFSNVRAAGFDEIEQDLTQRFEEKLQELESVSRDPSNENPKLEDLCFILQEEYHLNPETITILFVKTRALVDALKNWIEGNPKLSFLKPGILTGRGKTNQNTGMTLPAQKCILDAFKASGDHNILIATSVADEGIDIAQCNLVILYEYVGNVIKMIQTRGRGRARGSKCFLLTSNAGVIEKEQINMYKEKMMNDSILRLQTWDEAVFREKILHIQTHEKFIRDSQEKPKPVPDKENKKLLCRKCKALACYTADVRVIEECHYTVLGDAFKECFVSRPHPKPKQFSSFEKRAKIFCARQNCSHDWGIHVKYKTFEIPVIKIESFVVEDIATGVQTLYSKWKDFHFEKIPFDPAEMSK

B1: 14bp dsRNA-F (dsRNA)
RNA 1: GGAGAGAACCGCCU
RNA 2: AGGCGGUUCUCUCC
modifications: 5'-OH
- Kd (RIG-I full-length): 1.2 nM
- Kd [1]: 2.6 ± 1.2 nM
- Kd (RIG-I helicase domain [2]): 436 ± 121 nM
- Kd (RIG-I helicase domain [3]): 1300 nM

B2: 14bp pal dsRNA (dsRNA)
RNA 1: CGACGCUAGCGUCG
RNA 2: CGACGCUAGCGUCG
modifications: 5-iodouridine derivative also crystallized
- binding result (RIG-I helicase-RD): binds
